The record followed here is patent US20110250213A1 (JN BIOSCIENCES, published 2011).

Assay [1] deals with human CD122 (human) (UniProt P14784). The assay can be described thus: cell-based or functional assay.
Assay [2] deals with T1, mouse CD122 (mouse, UniProt P16297 27-240, limits assumed).
T1 sequence (looked up): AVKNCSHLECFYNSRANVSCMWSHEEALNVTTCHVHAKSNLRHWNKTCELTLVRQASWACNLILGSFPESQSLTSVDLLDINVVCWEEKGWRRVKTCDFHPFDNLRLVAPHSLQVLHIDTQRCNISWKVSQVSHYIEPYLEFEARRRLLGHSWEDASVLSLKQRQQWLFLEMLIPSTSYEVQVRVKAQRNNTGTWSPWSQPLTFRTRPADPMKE
The experiment in a line: assay not specified.

Chain of human CD122 (human) (P14784 27-551): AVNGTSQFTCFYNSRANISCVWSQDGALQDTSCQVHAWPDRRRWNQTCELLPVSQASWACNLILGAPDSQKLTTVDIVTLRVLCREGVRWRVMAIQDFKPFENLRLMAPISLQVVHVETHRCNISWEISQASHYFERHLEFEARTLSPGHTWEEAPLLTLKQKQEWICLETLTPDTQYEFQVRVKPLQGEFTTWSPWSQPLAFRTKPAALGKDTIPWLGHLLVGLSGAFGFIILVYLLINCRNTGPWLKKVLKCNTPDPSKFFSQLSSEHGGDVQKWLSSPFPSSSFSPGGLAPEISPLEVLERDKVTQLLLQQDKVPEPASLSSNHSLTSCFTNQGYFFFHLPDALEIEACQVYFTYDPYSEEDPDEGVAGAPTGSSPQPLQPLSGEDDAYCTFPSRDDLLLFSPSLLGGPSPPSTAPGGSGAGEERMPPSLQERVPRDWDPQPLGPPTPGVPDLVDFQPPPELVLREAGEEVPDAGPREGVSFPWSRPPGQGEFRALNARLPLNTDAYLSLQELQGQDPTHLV

In turn, HuMik-β1 (antibody) returned an antibody concentration required for 50% inhibition of proliferation mediated by trans-presentation of IL-15 to TF-1β cells in assay [1] of 10 µg/mL.

B1: ABC101 (antibody, mouse IgG2b, V domains shown)
VH: DVQLQESGPGLVKPSQTVSLTCTVTGYSITNDNHWWNWIRQVSGSKLEWMGYIDSSGSSDNNPSLKSQISITRDTSKNQLFLQLNSVTIEDIGTYYCARGGGRDYYGMDYWGQGTSVTVSS
VL: DIVLTQSPASLAVSLGQRATISCRASQSVSTSSYSYVHWYQQKPGQPPKLLIKYASNLESGVPARFSGSGSGTDFTLNIHPVEEEDTATYYCQHSWDIPFTFGGGTKLEIK
notes: Mouse IgG2b/kappa purified from hybridoma; also called mouse anti-human CD122 monoclonal antibody ABC101
Consider B1, for which, in assay [2], the binding result is given as “no binding”.

B2: ABC2 (antibody, mouse IgG1, V domains shown)
VH: EVKLVESGGGLVQPGGSLRLSCATSGFTFSDFYMEWVRQPPGKRLEWIAASRNKANDYTTEYSASVKGRFIVSRDTSQSILYLQMNALRAEDTAIYYCARSYYRYDGMDYWGQGTSVTVSS
VL: QVVLTQSPVIMSASPGEKVTMTCSAISSVSYMYWYQQKPGSSPRLLIYDTSNLVSGVPVRFSGSGSGTSYSLTISRMEAEDAATYYCQQWNTYPYTFGGGTKLEIK
notes: Mouse IgG1/kappa purified from hybridoma; also called mouse anti-human CD122 monoclonal antibody ABC2
With B2, the binding result in assay [2] is listed as “no binding”.
